Molecular target: the molecule itself
Experiment: dynamic light scattering; self-assembly into nanospheres; 0.4 mg/mL, pH 8, 25 mM Tris buffer, 22°C; Rayleigh sphere model, sphere-equivalent hydrodynamic radii

B1: rp(H)M180, recombinant His-tagged mouse amelogenin M180 (natural protein, UniProt P63277-1 17-196, looked up)
chain: MPLPPHPGSPGYINLSYEVLTPLKWYQSMIRQPYPSYGYEPMGGWLHHQIIPVLSQQHPPSHTLQPHHHLPVVPAQQPVAPQQPMMPVPGHHSMTPTQHHQPNIPPSAQQPFQQPFQPQAIPPQSHQPMQPQSPLHPMQPLAPQPPLPPLFSMQPLSPILPELPLEAWPATDKTKREEVD
notes: Assembles into nanospheres at pH 8; also called wild type mouse amelogenin; mAmelx; source: E. coli (pQE30), purified (Ni-NTA); not shown: poly-histidine, N-terminal, kept
B1: binds.

— article PMC3060920, “Structural Analysis of a Repetitive Protein Sequence Motif in Strepsirrhine Primate Amelogenin” (PLoS ONE, 2011)
